Results published in article PMC3518024.

Biological target: T1, AaNusB (Aquifex aeolicus, UniProt O66530 1-148)
T1 sequence: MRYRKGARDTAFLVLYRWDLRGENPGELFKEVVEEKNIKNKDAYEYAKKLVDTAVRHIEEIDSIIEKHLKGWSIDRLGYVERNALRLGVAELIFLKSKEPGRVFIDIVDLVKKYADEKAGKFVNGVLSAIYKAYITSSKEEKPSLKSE
Test: X-ray crystallography

B1: AaBoxA 12-mer RNA self-duplex (supercoil-forming) (dsRNA)
RNA 1: GGCUCCUUGGCA
RNA 2: GGCUCCUUGGCA
binding result: binds
